Results on three molecules are retold here after US20140087995A1 (published 2014).

Numbered stars: 1 amine (or outer) side, 2 acyl side, 3 side chain; on linkers, the order of the positions; unused ones are H or OH. Bridge positions count the residues as written; N and C are the ends. Side chains are listed from the residue outwards. Ends that are not written are not given here. * marks the point of attachment. C20 diacid = O=C(O)CCCCCCCCCCCCCCCCCCC(=O)*; γGlu = O=C(O)[C@H](CCC(=O)[*:2])N[*:1]

The target in experiment [1] is T1, human amylin receptor (amylin 3(a) receptor: human calcitonin receptor coexpressed with RAMP-3) (human, UniProt P30988 25-474; O60896 24-148).
T1 construct: whole, on cells; the functional assay (Assay II a) on whole cells; the complex is called human; also called hAmylin-R; hAmylinR
T1 sequence (looked up) 1: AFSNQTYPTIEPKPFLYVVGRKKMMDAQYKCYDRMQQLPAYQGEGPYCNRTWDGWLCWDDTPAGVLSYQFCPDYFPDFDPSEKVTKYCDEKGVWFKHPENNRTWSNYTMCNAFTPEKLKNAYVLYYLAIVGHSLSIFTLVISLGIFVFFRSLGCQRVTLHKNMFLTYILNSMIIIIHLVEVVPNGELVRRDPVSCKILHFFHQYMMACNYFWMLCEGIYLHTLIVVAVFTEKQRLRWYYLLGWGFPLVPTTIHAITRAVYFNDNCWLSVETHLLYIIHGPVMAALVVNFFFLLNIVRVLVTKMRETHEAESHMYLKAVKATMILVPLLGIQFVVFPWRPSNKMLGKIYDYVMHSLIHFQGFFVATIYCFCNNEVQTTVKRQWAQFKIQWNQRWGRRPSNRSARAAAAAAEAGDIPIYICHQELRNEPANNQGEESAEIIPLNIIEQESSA
T1 sequence (looked up) 2: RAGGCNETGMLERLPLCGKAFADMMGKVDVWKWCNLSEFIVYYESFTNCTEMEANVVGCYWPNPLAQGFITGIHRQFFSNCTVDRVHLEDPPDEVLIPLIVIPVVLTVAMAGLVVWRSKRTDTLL
Briefly: SPA competition against 125I-rat amylin, membranes of BHK amylin 3(a)/CRE-luc cells (Assay V). As for the experimental part: The binding assay was performed using scintillation proximity assay (SPA) beads (RPNQ0001) from PerkinElmer and cell membranes from the Amylin 3(a)/CRE-luc cells (as described in Assay (II)) were used. Membranes were prepared in the following way; the cells were rinsed with PBS and incubated with Versene for approximately 5 min before harvesting. The cells were flushed with PBS and the cell-suspension was centrifuged for 5 min at 1000 rpm. Cells were homogenized (ultrathurrax) in a buffer containing 20 mM Na-HEPES and 10 mM EDTA (pH 7.4) and centrifuged at 20.000 rpm for 15 min. The resulting pellet was resuspended, homogenized and centrifuged (20.000 rpm, 15 min) in a buffer containing 20 mM Na-HEPES and 0.1 mM EDTA (pH 7.4, buffer 2). The resulting pellet was resuspended in buffer 2 and protein concentration was measured (BCA protein Assay, Pierce). The homogenate was kept cold during the whole procedure. The membranes were kept at −80° C. until use. The assay was performed in a 384 well Optiplate (PerkinElmer) in a total volume of 40 ul. Membranes were mixed with SPA beads. Final concentration of membranes 35 ng/μL final and SPA beads was 0.05 mg/well. Test-compounds were dissolved in DMSO and further diluted in assay buffer (50 mM Hepes, pH 7.4, 1 mM CaCl2, 5 mM MgCl₂, 0.1% OA and 0.02% Tween20). […] The final mixture was incubated with shaking at 400 rpm for 120 min at 25° C. prior to centrifugation (1500 rpm, 10 min). Samples were analyzed on TopCounter™ (Packard). The IC₅₀ was calculated using (one site binding competition analysis) GraphPad Prism5 as a measure of receptor affinity.

For experiment [2], the target named is T2, human calcitonin receptor (human, UniProt P30988 25-474).
T2 sequence (looked up): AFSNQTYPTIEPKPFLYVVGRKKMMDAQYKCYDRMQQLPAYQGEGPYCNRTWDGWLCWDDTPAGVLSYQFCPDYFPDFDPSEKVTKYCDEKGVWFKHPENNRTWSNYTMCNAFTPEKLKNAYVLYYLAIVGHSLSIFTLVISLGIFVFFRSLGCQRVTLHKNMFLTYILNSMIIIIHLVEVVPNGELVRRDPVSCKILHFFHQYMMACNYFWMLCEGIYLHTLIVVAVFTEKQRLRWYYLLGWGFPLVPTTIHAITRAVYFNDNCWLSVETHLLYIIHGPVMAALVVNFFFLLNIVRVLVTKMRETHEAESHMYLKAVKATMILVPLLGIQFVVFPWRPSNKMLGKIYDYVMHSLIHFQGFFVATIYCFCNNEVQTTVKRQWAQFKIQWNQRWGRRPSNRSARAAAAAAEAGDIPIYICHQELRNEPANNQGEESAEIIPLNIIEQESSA
Kind of experiment: cell-based or functional assay.

Experiment [3] has as its target T1, human amylin receptor (amylin 3(a) …). Briefly: cell-based or functional assay.

B1: N^ε1-[(4S)-4-carboxy-4-[[(4S)-4-carboxy-4-(19-carboxynonadecanoylamino)butanoyl]amino]butanoyl]-[Glu14,Arg17,Pro21,Pro27,Arg34,Glu35]-h-amylin (peptide)
peptide: K([γGlu-γGlu-C20 diacid])CNTATCATQRLAEFLRHSSPNFGAIPSSTNVGRETY-NH2
modifications: disulfide 2-7; N-terminus assumed
SMILES: CC[C@H](C)[C@H](NC(=O)[C@H](C)NC(=O)CNC(=O)[C@H](Cc1ccccc1)NC(=O)[C@H](CC(N)=O)NC(=O)[C@@H]1CCCN1C(=O)[C@H](CO)NC(=O)[C@H](CO)NC(=O)[C@H](Cc1c[nH]cn1)NC(=O)[C@H](CCCNC(=N)N)NC(=O)[C@H](CC(C)C)NC(=O)[C@H](Cc1ccccc1)NC(=O)[C@H](CCC(=O)O)NC(=O)[C@H](C)NC(=O)[C@H](CC(C)C)NC(=O)[C@H](CCCNC(=N)N)NC(=O)[C@H](CCC(N)=O)NC(=O)[C@@H](NC(=O)[C@H](C)NC(=O)[C@@H]1CSSC[C@H](NC(=O)[C@@H](N)CCCCNC(=O)CC[C@H](NC(=O)CC[C@H](NC(=O)CCCCCCCCCCCCCCCCCCC(=O)O)C(=O)O)C(=O)O)C(=O)N[C@@H](CC(N)=O)C(=O)N[C@@H]([C@@H](C)O)C(=O)N[C@@H](C)C(=O)N[C@@H]([C@@H](C)O)C(=O)N1)[C@@H](C)O)C(=O)N1CCC[C@H]1C(=O)N[C@@H](CO)C(=O)N[C@@H](CO)C(=O)N[C@H](C(=O)N[C@@H](CC(N)=O)C(=O)N[C@H](C(=O)NCC(=O)N[C@@H](CCCNC(=N)N)C(=O)N[C@@H](CCC(=O)O)C(=O)N[C@H](C(=O)N[C@@H](Cc1ccc(O)cc1)C(N)=O)[C@@H](C)O)C(C)C)[C@@H](C)O
By IC50 is commonly meant the point on the concentration scale where inhibition reaches its midpoint. Turning to B1, the IC50 in experiment [1] was found to be 957 pM. Besides, in experiment [2], the “Ratio hCT/hAmylin funct.” value came out at 10.6 and the “hCTR funct. EC50 (pM)” value came out at 7430 pM. The “hAmylin-R funct. EC50 (pM)” value in experiment [3] amounted to 703 pM.

Take K([γGlu-γGlu-C20 diacid])CNTATCATQRLAEFLRHSSNNPGAILSSTNVGPETY-NH2 (disulfide 2-7): in experiment [1], the 50% inhibitory concentration (IC50) turned out to be 1190 pM. In experiment [2], the “Ratio hCT/hAmylin funct.” value came out at 17.3 and the “hCTR funct. EC50 (pM)” value came out at 89600 pM. In experiment [3], the “hAmylin-R funct. EC50 (pM)” value was 5170 pM.

B2: N^ε1-[(4S)-4-carboxy-4-[[(4S)-4-carboxy-4-(19-carboxynonadecanoylamino)butanoyl]amino]butanoyl]-[Glu14,Arg17,Pro21,Pro27,Pro34,Glu35]-h-amylin (peptide)
peptide: K([γGlu-γGlu-C20 diacid])CNTATCATQRLAEFLRHSSPNFGAIPSSTNVGPETY-NH2
modifications: disulfide 2-7; N-terminus assumed
SMILES: CC[C@H](C)[C@H](NC(=O)[C@H](C)NC(=O)CNC(=O)[C@H](Cc1ccccc1)NC(=O)[C@H](CC(N)=O)NC(=O)[C@@H]1CCCN1C(=O)[C@H](CO)NC(=O)[C@H](CO)NC(=O)[C@H](Cc1c[nH]cn1)NC(=O)[C@H](CCCNC(=N)N)NC(=O)[C@H](CC(C)C)NC(=O)[C@H](Cc1ccccc1)NC(=O)[C@H](CCC(=O)O)NC(=O)[C@H](C)NC(=O)[C@H](CC(C)C)NC(=O)[C@H](CCCNC(=N)N)NC(=O)[C@H](CCC(N)=O)NC(=O)[C@@H](NC(=O)[C@H](C)NC(=O)[C@@H]1CSSC[C@H](NC(=O)[C@@H](N)CCCCNC(=O)CC[C@H](NC(=O)CC[C@H](NC(=O)CCCCCCCCCCCCCCCCCCC(=O)O)C(=O)O)C(=O)O)C(=O)N[C@@H](CC(N)=O)C(=O)N[C@@H]([C@@H](C)O)C(=O)N[C@@H](C)C(=O)N[C@@H]([C@@H](C)O)C(=O)N1)[C@@H](C)O)C(=O)N1CCC[C@H]1C(=O)N[C@@H](CO)C(=O)N[C@@H](CO)C(=O)N[C@H](C(=O)N[C@@H](CC(N)=O)C(=O)N[C@H](C(=O)NCC(=O)N1CCC[C@H]1C(=O)N[C@@H](CCC(=O)O)C(=O)N[C@H](C(=O)N[C@@H](Cc1ccc(O)cc1)C(N)=O)[C@@H](C)O)C(C)C)[C@@H](C)O
In the case of B2, the IC50 in experiment [1] worked out at 121 pM. In experiment [2], the “Ratio hCT/hAmylin funct.” value is 10.5 and the “hCTR funct. EC50 (pM)” value was found to be 2360 pM. Further, the “hAmylin-R funct. EC50 (pM)” value in experiment [3] turned out to be 225 pM.
